The supplement of paper PMC7125110
± gives the standard error. For some of these results: Fewer inactive variants are shown than the library holds.

B1: glmS ribozyme (parent)
chain: AUAAAAGCGCCAGAACUACAGAAAUGUAGUUGACGAGGAGGAGGUUUAUCGAAUUUUCGGCGGAUGCCUCCAAA

Assays:
Conditions in all cases: with glucosamine-6-phosphate
[1] = variants of: B1; test: kcat; higher = faster cleavage; RNA array
In short: (§1)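 Barcoded glmS ribozyme variants on sequenced MiSeq chips were transcribed in situ by E. coli RNA polymerase and tracked through a hybridised Cy3 probe at 37 °C. Glucosamine-6-phosphate (40 μM to 10 mM) in HEPES/KCl/Mg(OAc)2 buffer was flowed in, and tiles were imaged over ~14 h. Signals were normalised to baseline and to non-cleaving reference variants; per-tile medians were fit to one- or two-exponential decays to give kobs. kcat and KM came from weighted Michaelis–Menten fits across concentrations.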

[2] = variants of: B1; test: KM; higher = weaker cofactor use; RNA array
In short: as §1

[3] = variants of: B1; test: self-cleavage kobs at 40 uM GlcN6P; higher = faster cleavage; RNA array
In short: as §1

[4] = variants of: B1; test: self-cleavage kobs at 160 uM GlcN6P; higher = faster cleavage; RNA array
In short: as §1

[5] = variants of: B1; test: self-cleavage kobs at 640 uM GlcN6P; higher = faster cleavage; RNA array
In short: as §1

[6] = variants of: B1; test: self-cleavage kobs at 2500 uM GlcN6P; higher = faster cleavage; RNA array
In short: as §1

[7] = variants of: B1; test: self-cleavage kobs at 10000 uM GlcN6P; higher = faster cleavage; RNA array
In short: as §1

Variant	kcat [1]	KM [2]	self-cleavage kobs at 40 uM GlcN6P [3]	self-cleavage kobs at 160 uM GlcN6P [4]	self-cleavage kobs at 640 uM GlcN6P [5]	self-cleavage kobs at 2500 uM GlcN6P [6]	self-cleavage kobs at 10000 uM GlcN6P [7]
A12C A39U	0.0119 ± 0.0024 s⁻¹	2230 ± 600 µM	0.000239 ± 1.9e-05 s⁻¹	0.000824 ± 9.8e-05 s⁻¹	0.00219 ± 0.00025 s⁻¹	0.00569 ± 0.00066 s⁻¹	0.0112 ± 0.0011 s⁻¹
C11A G13A	< 1e-05 s⁻¹		< 1e-05 s⁻¹				
C10A U30A C68U	7.99e-05 ± 2.3e-05 s⁻¹			8.08e-05 ± 2.5e-05 s⁻¹			
C10U C68G C70U	7.35e-05 ± 2.9e-05 s⁻¹			3.3e-05 ± 1.5e-05 s⁻¹	0.00013 ± 2.8e-05 s⁻¹	5.98e-05 ± 1.4e-05 s⁻¹	
C11U U46C	7.67e-05 ± 2e-05 s⁻¹		< 1e-05 s⁻¹		3.45e-05 ± 1.3e-05 s⁻¹	3.71e-05 ± 9.8e-06 s⁻¹	6.92e-05 ± 1.1e-05 s⁻¹
C10U U47C U56G C68U U69A	< 1e-05 s⁻¹	429 ± 190 µM			< 1e-05 s⁻¹		< 1e-05 s⁻¹
A12C A53C	0.00399 ± 0.0011 s⁻¹	2090 ± 920 µM	0.000109 ± 1.4e-05 s⁻¹	0.000285 ± 8.1e-05 s⁻¹	0.000662 ± 0.00012 s⁻¹	0.00223 ± 0.00038 s⁻¹	0.00352 ± 0.00041 s⁻¹
A12C A53U	0.015 ± 0.0038 s⁻¹	2160 ± 740 µM	0.000376 ± 4.9e-05 s⁻¹	0.000867 ± 0.00013 s⁻¹	0.00317 ± 0.00041 s⁻¹	0.0103 ± 0.0019 s⁻¹	0.0121 ± 0.0016 s⁻¹
A12C A53G	0.0568 ± 0.027 s⁻¹		0.000585 ± 7.2e-05 s⁻¹	0.00162 ± 0.00033 s⁻¹	0.00569 ± 0.00072 s⁻¹	0.0149 ± 0.0025 s⁻¹	0.0471 ± 0.0076 s⁻¹
C10A G38A	< 1e-05 s⁻¹		< 1e-05 s⁻¹				
C11A U30A	0.000318 ± 4.7e-05 s⁻¹	1940 ± 600 µM			8.58e-05 ± 1.7e-05 s⁻¹	0.000146 ± 3.4e-05 s⁻¹	0.000288 ± 4.4e-05 s⁻¹
A12C G59A	< 1e-05 s⁻¹		< 1e-05 s⁻¹	< 1e-05 s⁻¹			
A12C G59C	1.09e-05 ± 2.5e-06 s⁻¹						
G9A C34G C67A	< 1e-05 s⁻¹					< 1e-05 s⁻¹	
C11G G63A C68U	< 1e-05 s⁻¹						
C11A A14C	6.31e-05 ± 3.4e-06 s⁻¹	2820 ± 410 µM				3.05e-05 ± 1.3e-05 s⁻¹	4.9e-05 ± 1.5e-05 s⁻¹
C11A A14U	9.91e-05 ± 4.5e-06 s⁻¹	947 ± 180 µM			4.4e-05 ± 1e-05 s⁻¹	6.89e-05 ± 9.1e-06 s⁻¹	9.18e-05 ± 8.6e-06 s⁻¹
C10A C58G	1.34e-05 ± 2.4e-06 s⁻¹						
C10A C58U	< 1e-05 s⁻¹				< 1e-05 s⁻¹		
